Experimental findings from US20210371503A1 are described below.

B1: MnC4t1p1_A10 (antibody, V domains shown)
VH: QLQVQESGPGLVKPSETLSLTCTVSGASISSNHYFWGWIRQPPGKGLAWIGSMHYSGSTYYNPSLKSRVTISVDTSKNQLSLKLSSVTAADTAVYYCARGVNYYDRNGYYRNDGFDIRGQGTMVTVSS
VL: DIQMTQSPSSLSASVGDRVTITCRASQGIRNDLGWYEQKPGKAPKRLIYAASSLESGVPSRFSGSGSGTEFTLTISSLQPEDFATYYCLQHNTYPFTFGPGTRVDIK
B2: MnC4t2p1_D10 (antibody, V domains shown)
VH: B1 VH
VL: B1 VL
B3: MnC4t2p1_F5 (antibody, V domains shown)
VH: B1 VH
VL: B1 VL

This assay addresses monomeric (SARS-CoV-2 S ectodomain monomer) (SARS-CoV-2). Briefly: ELISA, coated monomeric S ectodomain [cont'd].
A word on the EC50: it is the concentration giving half of the maximal effect. Read a high EC50 as lower potency in that assay. The molecule B1 gave an EC50 of less than 100 mg/L.

With B2, the EC50 was less than 100 mg/L.

The molecule B3 returned an EC50 of less than 100 mg/L.
